Measured values taken from PMC10397247.

Assays:
O12-bN = target: T1, O12-bN; experiment: two-hybrid library CCNG1;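 also: natural log of median RNA to DNA barcode read ratio; higher means stronger binding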
T1 chain: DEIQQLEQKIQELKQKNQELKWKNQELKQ

O3-bN = target: T2, O3-bN; experiment: two-hybrid library CCNG1;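 also: natural log of median RNA to DNA barcode read ratio; higher means stronger binding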
T2 chain: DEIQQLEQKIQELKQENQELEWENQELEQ

O4-bN = target: T3, O4-bN; experiment: two-hybrid library CCNG1;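 also: natural log of median RNA to DNA barcode read ratio; higher means stronger binding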
T3 chain: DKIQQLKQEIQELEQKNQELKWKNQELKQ

O1-bN = target: T4, O1-bN; experiment: two-hybrid library CCNG1;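 also: natural log of median RNA to DNA barcode read ratio; higher means stronger binding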
T4 chain: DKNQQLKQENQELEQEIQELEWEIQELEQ

O14-bN = target: T5, O14-bN; experiment: two-hybrid library CCNG1;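 also: natural log of median RNA to DNA barcode read ratio; higher means stronger binding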
T5 chain: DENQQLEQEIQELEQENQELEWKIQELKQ

O9-bN = target: T6, O9-bN; experiment: two-hybrid library CCNG1;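 also: natural log of median RNA to DNA barcode read ratio; higher means stronger binding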
T6 chain: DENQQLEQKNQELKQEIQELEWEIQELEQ

O6-bN = target: T7, O6-bN; experiment: two-hybrid library CCNG1
T7 chain: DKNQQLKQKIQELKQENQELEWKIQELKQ

O5-bN = target: T8, O5-bN; experiment: two-hybrid library CCNG1
T8 chain: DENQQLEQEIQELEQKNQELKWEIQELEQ

O13-bN = target: T9, O13-bN; experiment: two-hybrid library CCNG1
T9 chain: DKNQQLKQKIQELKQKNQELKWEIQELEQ

O11-bN = target: T10, O11-bN; experiment: two-hybrid library CCNG1
T10 chain: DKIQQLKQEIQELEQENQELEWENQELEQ

O10-bN = target: T11, O10-bN; experiment: two-hybrid library CCNG1
T11 chain: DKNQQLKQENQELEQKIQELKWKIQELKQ

O2-bN = target: T12, O2-bN; experiment: two-hybrid library CCNG1
T12 chain: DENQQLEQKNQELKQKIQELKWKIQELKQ

O16-bN = target: T13, O16-bN; experiment: two-hybrid library CCNG1
T13 chain: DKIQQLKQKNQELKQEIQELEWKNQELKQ

O8-bN = target: T14, O8-bN; experiment: two-hybrid library CCNG1
T14 chain: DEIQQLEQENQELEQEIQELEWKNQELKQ

O15-bN = target: T15, O15-bN; experiment: two-hybrid library CCNG1
T15 chain: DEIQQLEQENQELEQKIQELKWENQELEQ

O7-bN = target: T16, O7-bN; experiment: two-hybrid library CCNG1
T16 chain: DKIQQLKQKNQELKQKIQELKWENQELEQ

4H145-bH = target: T17, 4H145-bH; experiment: two-hybrid library CCNG1
T17 chain: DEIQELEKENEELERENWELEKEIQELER

4H496-bH = target: T18, 4H496-bH; experiment: two-hybrid library CCNG1
T18 chain: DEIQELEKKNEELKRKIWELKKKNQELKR

4H342-bH = target: T19, 4H342-bH; experiment: two-hybrid library CCNG1
T19 chain: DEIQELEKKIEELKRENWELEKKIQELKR

4H2619-bH = target: T20, 4H2619-bH; experiment: two-hybrid library CCNG1
T20 chain: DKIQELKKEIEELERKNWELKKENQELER

4H1347-bH = target: T21, 4H1347-bH; experiment: two-hybrid library CCNG1
T21 chain: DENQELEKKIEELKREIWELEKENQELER

4H2691-bH = target: T22, 4H2691-bH; experiment: two-hybrid library CCNG1
T22 chain: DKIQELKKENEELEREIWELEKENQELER

4H3070-bH = target: T23, 4H3070-bH; experiment: two-hybrid library CCNG1
T23 chain: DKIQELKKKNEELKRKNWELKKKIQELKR

4H3632-bH = target: T24, 4H3632-bH; experiment: two-hybrid library CCNG1
T24 chain: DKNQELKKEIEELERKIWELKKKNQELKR

P7bHq = target: T25, P7bHq; experiment: two-hybrid library CCNG1
T25 chain: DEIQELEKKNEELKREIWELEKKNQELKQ

P8bHq = target: T26, P8bHq; experiment: two-hybrid library CCNG1
T26 chain: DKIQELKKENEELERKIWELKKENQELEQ

P3bHq = target: T27, P3bHq; experiment: two-hybrid library CCNG1
T27 chain: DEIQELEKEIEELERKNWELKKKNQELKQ

P1bHq = target: T28, P1bHq; experiment: two-hybrid library CCNG1
T28 chain: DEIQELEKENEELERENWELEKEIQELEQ

P10bHq = target: T29, P10bHq; experiment: two-hybrid library CCNG1
T29 chain: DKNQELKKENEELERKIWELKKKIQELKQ

P6bHq = target: T30, P6bHq; experiment: two-hybrid library CCNG1
T30 chain: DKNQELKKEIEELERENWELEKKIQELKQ

P4bHq = target: T31, P4bHq; experiment: two-hybrid library CCNG1
T31 chain: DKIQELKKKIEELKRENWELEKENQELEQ

P5bHq = target: T32, P5bHq; experiment: two-hybrid library CCNG1
T32 chain: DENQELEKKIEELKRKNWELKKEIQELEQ

P12bHq = target: T33, P12bHq; experiment: two-hybrid library CCNG1
T33 chain: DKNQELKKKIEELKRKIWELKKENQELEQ

P11bHq = target: T34, P11bHq; experiment: two-hybrid library CCNG1
T34 chain: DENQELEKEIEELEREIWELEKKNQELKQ

P9bHq = target: T35, P9bHq; experiment: two-hybrid library CCNG1
T35 chain: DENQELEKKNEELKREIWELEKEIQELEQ

4H342-bN = target: T36, 4H342-bN; experiment: two-hybrid library CCNG1
T36 chain: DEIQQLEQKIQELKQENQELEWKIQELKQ

4H3070-bN = target: T37, 4H3070-bN; experiment: two-hybrid library CCNG1
T37 chain: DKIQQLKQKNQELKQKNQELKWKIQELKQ

4H3632-bN = target: T38, 4H3632-bN; experiment: two-hybrid library CCNG1
T38 chain: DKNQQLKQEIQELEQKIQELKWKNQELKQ

4H496-bN = target: T39, 4H496-bN; experiment: two-hybrid library CCNG1
T39 chain: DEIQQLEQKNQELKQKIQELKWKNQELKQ

4H2691-bN = target: T40, 4H2691-bN; experiment: two-hybrid library CCNG1
T40 chain: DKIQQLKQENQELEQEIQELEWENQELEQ

4H2619-bN = target: T41, 4H2619-bN; experiment: two-hybrid library CCNG1
T41 chain: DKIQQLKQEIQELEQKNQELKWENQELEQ

4H1347-bN = target: T42, 4H1347-bN; experiment: two-hybrid library CCNG1
T42 chain: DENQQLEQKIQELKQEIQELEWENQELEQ

4H145-bN = target: T43, 4H145-bN; experiment: two-hybrid library CCNG1
T43 chain: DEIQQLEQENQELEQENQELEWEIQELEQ

Core_NINN-es_KKKE = target: T44, Core_NINN-es_KKKE; experiment: two-hybrid library CCmax; details: mean of both orientations
T44 chain: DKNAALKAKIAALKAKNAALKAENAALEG

Core_NIIN-es_KKEE = target: T45, Core_NIIN-es_KKEE; experiment: two-hybrid library CCmax; details: mean of both orientations
T45 chain: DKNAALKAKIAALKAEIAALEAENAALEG

Core_IINI-es_KKEE = target: T46, Core_IINI-es_KKEE; experiment: two-hybrid library CCmax; details: mean of both orientations
T46 chain: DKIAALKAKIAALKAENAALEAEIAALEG

Core_IINI-es_KKEK = target: T47, Core_IINI-es_KKEK; experiment: two-hybrid library CCmax; details: mean of both orientations
T47 chain: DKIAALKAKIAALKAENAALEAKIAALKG

B1: O1-bN (peptide)
chain: DKNQQLKQENQELEQEIQELEWEIQELEQ
O12-bN
  interaction score: -1.46
O3-bN
  interaction score: -2.11
O4-bN
  interaction score: -0.922
O1-bN
  interaction score: -0.57
O14-bN
  interaction score: -1.24
O9-bN
  interaction score: -1.9
O6-bN
  interaction score: -1.45
O5-bN
  interaction score: -1.54
O13-bN
  interaction score: -1.14
O11-bN
  interaction score: -1.2
O10-bN
  interaction score: -0.61
O2-bN
  interaction score: 2
O16-bN
  interaction score: -1.9
O8-bN
  interaction score: -0.836
O15-bN
  interaction score: -1.32
O7-bN
  interaction score: -1.34

B2: 4H1347-bH (peptide)
chain: DENQELEKKIEELKREIWELEKENQELER
4H145-bH
  interaction score: -0.368
4H496-bH
  interaction score: -0.415
4H342-bH
  interaction score: -0.391
4H2619-bH
  interaction score: -0.987
4H1347-bH
  interaction score: 0.364
4H2691-bH
  interaction score: -0.275
4H3070-bH
  interaction score: -0.395
4H3632-bH
  interaction score: 1.71

B3: P10bHq (peptide)
chain: DKNQELKKENEELERKIWELKKKIQELKQ
P7bHq
  interaction score: 1.54
P8bHq
  interaction score: -0.382
P3bHq
  interaction score: -0.901
P1bHq
  interaction score: 1.43
P10bHq
  interaction score: -0.704
P6bHq
  interaction score: 1.3
P4bHq
  interaction score: 0.266
P5bHq
  interaction score: -0.0841
P12bHq
  interaction score: 1.08
P11bHq
  interaction score: -1.18
P9bHq
  interaction score: 1

B4: 4H1347-bN (peptide)
chain: DENQQLEQKIQELKQEIQELEWENQELEQ
4H342-bN
  interaction score: -0.286
4H3070-bN
  interaction score: 0.122
4H3632-bN
  interaction score: 1.6
4H496-bN
  interaction score: -0.299
4H2691-bN
  interaction score: -0.113
4H2619-bN
  interaction score: -1.17
4H1347-bN
  interaction score: -0.341
4H145-bN
  interaction score: -0.341

B5: Core_NINN-es_EEEK (peptide)
chain: DENAALEAEIAALEAENAALEAKNAALKG
Core_NINN-es_KKKE
  interaction score: 2.16

B6: Core_NIIN-es_EEKK (peptide)
chain: DENAALEAEIAALEAKIAALKAKNAALKG
Core_NIIN-es_KKEE
  interaction score: 2.03

B7: Core_IINI-es_EEKK (peptide)
chain: DEIAALEAEIAALEAKNAALKAKIAALKG
Core_IINI-es_KKEE
  interaction score: 2.25

B8: Core_IINI-es_EEKE (peptide)
chain: DEIAALEAEIAALEAKNAALKAEIAALEG
Core_IINI-es_KKEK
  interaction score: 2.32
